Patent US6489125

Legend:
[1] = biological target: RyR2 channels from failing hearts; experiment: co-immunoprecipitation, immunoblot densitometry (FIG. 4B)
[2] = biological target: RyR2 channels from failing hearts; experiment: cell-based or functional assay
[3] = tested on: type 2 ryanodine receptor (RyR2), native channel from cardiac sarcoplasmic reticulum

| Substance | decrease in the amount of FKBP12.6 bound (failing against normal hearts) [1] | open probability (Po) at 50 nM cis (cytosolic) Ca^2+ [2] | phosphorylation of RyR2 on addition of cAMP without exogenous PKA [3] |
| --- | --- | --- | --- |
| FK-506 binding protein FKBP12.6, native from cardiac SR (from UniProt P68106 1-108) | 60% | 0.24 |  |
| protein kinase A (PKA) catalytic subunit, endogenous in cardiac SR |  |  | Addition of phosphorylation buffer including cAMP without exogenous PKA also resulted in phosphorylation of RyR2 that was inhibited by PKI |
